Molecular target: Rabbit anti-human MDL-1 polyclonal antibodies
Assay: cell-based or functional assay

B1: human MDL-1 extracellular domain protein expressed in baculovirus (receptor)
chain: PQIFNKSNDGFTTTRSYGTVSQIFGSSSPSPNGFITTRSYGTVCPKDWEFYQARCFFLSTSESSWNESRDFCKGKGSTLAIVNTPEKLKFLQDITDAEKYFIGLIYHREEKRWRWINNSVFNGNVTNQNQNFNCATIGLTKTFDAASCDISYRRICEKNAK
  IC50 for inhibition of α-hMDL-1 pAb-induced β-galactosidase reporter signaling in the CD3zH912Z1 line: 0.1 nM

Source: patent US20070179094A1 (Bayer, published 2007)
